# Source: publication PMC5127644, “SPRTN is a mammalian DNA-binding metalloprotease that resolves DNA-protein crosslinks”
# B1: 6-FAM-ssODN 39-mer (ssDNA)
# DNA: GCGCGCCCATTGATACTAAATTCAAGGATGACTTATTTC
# B2: 6-FAM-dsODN 39-mer (dsDNA)
# DNA 1: GCGCGCCCATTGATACTAAATTCAAGGATGACTTATTTC
# DNA 2: GAAATAAGTCATCCTTGAATTTAGTATCAATGGGCGCGC
# What was measured:
# SPRTN full length = biological target: T1, SPRTN full length (Homo sapiens, UniProt Q9H040 1-489); test: EMSA; 5 uM ZnSO4; EMSA: 10 mM Tris-HCl pH 7.5, 0.2 mM DTT, 5 uM ZnSO4, 0.25 uM DNA, 30 uL, 30 min at 20 C, 1.5% agarose gel; conditions: protein: recombinant, tags: Z-basic-His tag, TEV-cleaved (E. coli, pNIC-ZB)
# T1 sequence: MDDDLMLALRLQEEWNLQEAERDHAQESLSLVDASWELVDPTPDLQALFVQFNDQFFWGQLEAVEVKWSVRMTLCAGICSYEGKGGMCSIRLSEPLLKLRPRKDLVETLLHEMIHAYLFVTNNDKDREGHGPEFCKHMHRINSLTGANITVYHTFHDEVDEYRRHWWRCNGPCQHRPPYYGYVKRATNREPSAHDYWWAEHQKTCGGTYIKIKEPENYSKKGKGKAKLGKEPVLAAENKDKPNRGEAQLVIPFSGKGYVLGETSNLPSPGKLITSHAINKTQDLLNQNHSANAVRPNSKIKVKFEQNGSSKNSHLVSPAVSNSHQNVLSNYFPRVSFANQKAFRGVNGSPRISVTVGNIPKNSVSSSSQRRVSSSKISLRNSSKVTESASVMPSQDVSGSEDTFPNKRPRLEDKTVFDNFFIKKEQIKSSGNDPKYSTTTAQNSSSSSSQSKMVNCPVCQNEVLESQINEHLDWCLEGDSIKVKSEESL
# SPRTN-∆C (a.a. 1-216) = biological target: T2, SPRTN-∆C (a.a. 1-216) (Homo sapiens, UniProt Q9H040 1-216); test: as above; conditions: protein: recombinant, tags: His tag (pNIC28-Bsa4), TEV-cleaved (E. coli)
# T2 sequence: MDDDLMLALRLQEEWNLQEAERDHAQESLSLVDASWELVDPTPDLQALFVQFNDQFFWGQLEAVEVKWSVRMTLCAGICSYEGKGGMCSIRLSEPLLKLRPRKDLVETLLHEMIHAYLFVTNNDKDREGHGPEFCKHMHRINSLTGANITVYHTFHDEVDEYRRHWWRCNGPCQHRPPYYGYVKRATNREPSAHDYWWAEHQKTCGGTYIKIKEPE
# [1] = label: 6-FAM (5' as drawn), single strand
# [2] = label: 6-FAM on strand 1, blunt
binder,measurement,setting,value
B1,binding result,SPRTN full length; [1],binds
same,binding result,SPRTN-∆C (a.a. 1-216); [1],no binding
B2,binding result,SPRTN full length; [2],binds
same,binding result,SPRTN-∆C (a.a. 1-216); [2],no binding
